In the supplement of paper PMC12042874:
± gives the uncertainty stated by the source.

test: amyloid nucleation score (Sup35N fusion, yeast selection) (log enrichment); library NNK1; higher = more nucleation; inactive = no reads after selection
Summary of the method: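 Growth for 7 days at 30°C on medium lacking adenine and uracil followed a 24-hour induction with 100 μM copper sulfate of psi-negative yeast expressing peptides of 20 random codons fused to Sup35N. Input and output plasmid inserts were sequenced with Illumina, and sequences with under 100 input reads were excluded. Nucleation score is the DiMSum log enrichment of output over input reads, centred on the mode score of non-aggregating sequences.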

Substance	amyloid nucleation score
NKLAHSNVDKAKLRDNPQAG	-0.407 ± 1
NKLRGGVGERSVLQGWIEED	-0.052 ± 0.53
NKMGFSRCSLQGDVKFF	-0.482 ± 0.51
NKRTLLVVY	-1.19 ± 0.81
NKSCDGVRLCREARKALEPC	0.34 ± 0.52
NKYVVETDH	-0.604 ± 1.1
NLASNVRESVGSGIYLMNIS	1.97 ± 0.6
NLEWGLYISTANCPRNYDKA	inactive
NLFLVIPAFDLLMFGSERSS	5.55 ± 0.063
NLGAMWLNVVPVYLKWVAL	-0.095 ± 0.32
NLGFTRSPHAETSLFTH	0.235 ± 0.47
NLGYDCGLGAMSGWMRWLIS	0.459 ± 0.64
NLPVGLEAM	-0.327 ± 0.62
NLRHALRMVTNGLSCTRKHG	-0.278 ± 0.43
NLRIGFVEQLSSGVLDGPDD	0.471 ± 0.97
NLRYYQFRSRSPTAWGHTMF	-0.744 ± 0.58
NLSIYIYSNNLLLNVF	6.194 ± 0.052
NLSQSLVHRVSSVEYTLRLL	inactive
NLVAT	1.09 ± 0.67
NLWKVFCSCLNRDMKALGNW	-1.04 ± 0.51
NMDRVSFLR	-0.062 ± 0.6
NMLFLSRGDP	-0.499 ± 1.9

Substance	amyloid nucleation score
NMRYHGISCRYRKYYFRWLD	-0.261 ± 0.31
NMSLSWRTNRYAWPMVCLIR	0.182 ± 0.23
NMVSCGDALR	-0.554 ± 1.7
NMYNVRLFVPHFSLECLTWY	2.87 ± 0.12
NNACMSSYVVGYRSIVMVK	0.558 ± 1.1
NNDINFSDLFRCGERTYVFW	2.24 ± 0.18
NNGAVVSGS	-0.046 ± 0.25
NNKSEVF	1.46 ± 0.74
NNPDTMSI	0.44 ± 0.56
NNSSIVFLW	-0.057 ± 1.4
NNYYA	-0.616 ± 0.52
NPGRLRFTGTMRRTQKIEVA	-0.876 ± 0.49
NPHEDRGLESQSAPGGRKWR	1.74 ± 0.64
NPVGSSRVVYRAPNHVIV	1.18 ± 0.58
NRFNRYNVFPVYDQNLESPL	0.205 ± 0.38
NRIISLCSLSCDYLNLDWCI	7.13 ± 0.08
NRLATLVDVTVMQSNTFELL	0.748 ± 0.35
NRLIGGLFSCVCTADQSTHS	8.419 ± 0.047
NRSYNN	-0.243 ± 0.29
NRTDKKDTLRWLFPT	0.435 ± 0.81
NSDGSLSKTRKRAGAQVSRQ	0.312 ± 1.1
NSITAQRVWVPPFVCLGDRY	0.146 ± 0.44

Substance	amyloid nucleation score
NSKRTGASLRIELRLQFRKR	-0.215 ± 0.39
NSSYTCPNFRHTFCRYICYA	0.533 ± 0.27
NSWRRE	1.02 ± 0.93
NSYFWSGEIIIEYQRP	-1.23 ± 0.65
NTKELVYKMGCGVRYHGKWG	1.28 ± 0.71
NTLTMIHLIVLTELSLFK	0.297 ± 0.26
NTRYYFENNMR	-0.599 ± 0.4
NTSSFVSTNWSGFPWSGSRY	2.02 ± 0.24
NTTYQTYR	4.31 ± 0.074
NTVFL	0.549 ± 0.39
NTVIVPHLIILLDYSKVWAE	3.28 ± 0.069
NVANVV	-0.013 ± 1.2
NVDKHVWFGGVIVVNLWHIR	6.827 ± 0.054
NVGRHV	0.151 ± 0.9
NVHVFRNRSEITFKRASSWE	1.08 ± 0.9
NVKPSDDNVSLRNYGIRYLE	-0.29 ± 1.1
NVLWIPSSGISSVRLEGIAM	0.393 ± 0.46
NVMSSPCIRVGMLRMGVTKS	1.62 ± 0.51
NVTFEADLQLLCSRCSWFGT	3.17 ± 0.061
NVTFHSRSGV	-0.316 ± 0.84
NVVAYTCNFFCDGSLSGYLC	0.784 ± 0.41
NVYKFCDRAGLCAVGYYLGT	3.02 ± 0.081

Substance	amyloid nucleation score
NWFTSMRGLYVSLWYRMKKG	inactive
NWILSLAGFYRSSKVSSCTT	0.41 ± 0.67
NWNVGTQTKHVDNFLHKVIN	-0.315 ± 0.74
NWRFGLYSHIGIWLMVKS	1.86 ± 0.38
NWSCTYRMVVS	-0.598 ± 0.22
NWVGGYTEIALLA	-0.344 ± 0.78
NYASKLYFFLVVMSRFNRKG	-0.115 ± 1.7
NYGAFY	-0.13 ± 0.63
NYIMTRHPPLGISLPEVGRS	-0.81 ± 0.85
NYLERHMQHPMRTHVFRGQL	0.129 ± 0.72
NYLLWVQVWCRDWGNWGIMG	1.41 ± 0.81
NYRQHHKTSRVLRLDVGTEP	-0.252 ± 0.3
NYSEPDFKFHCVYGVYAMWG	0.403 ± 0.88
NYTVRENGSK	-0.127 ± 0.27
NYVSLGDVKRRMPGLFELTA	0.048 ± 0.43
PANIVAFGGLMSIPLVLPVL	-0.104 ± 0.4
PCSSVLLEHWSRYASRCEMV	1.28 ± 0.58
PCWGGTLGSVKLVVSSSA	inactive
PFEYLVRLIYCEDVAYLGTG	-0.148 ± 0.62
PFHGFGR	-1.04 ± 0.53
